In paper PMC9482650, “Quantitative fragmentomics allow affinity mapping of interactomes” (Nature Communications, 2022):

T1: LIN7C, Q9NUP9
T1 sequence (Q9NUP9 88-185, limits assumed, looked up): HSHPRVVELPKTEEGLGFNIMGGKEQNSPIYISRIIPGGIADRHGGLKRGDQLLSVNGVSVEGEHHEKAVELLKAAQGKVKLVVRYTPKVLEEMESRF

T2: GRIP1_4, Q9Y3R0
T2 sequence (Q9Y3R0 467-571, limits assumed, looked up): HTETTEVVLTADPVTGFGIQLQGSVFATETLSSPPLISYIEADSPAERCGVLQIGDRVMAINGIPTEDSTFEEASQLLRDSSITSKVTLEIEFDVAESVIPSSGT

T3: CARD11, Q9BXL7
T3 sequence (Q9BXL7 662-765, limits assumed, looked up): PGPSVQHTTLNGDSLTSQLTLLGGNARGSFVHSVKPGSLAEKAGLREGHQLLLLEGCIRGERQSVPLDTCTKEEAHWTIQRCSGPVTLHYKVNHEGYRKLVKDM

T4: SHANK1, Q9Y566
T4 sequence (Q9Y566 658-767, limits assumed, looked up): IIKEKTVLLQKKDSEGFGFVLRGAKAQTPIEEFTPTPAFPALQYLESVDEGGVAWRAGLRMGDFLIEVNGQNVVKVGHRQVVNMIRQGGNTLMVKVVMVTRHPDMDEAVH

T5: SIPA1L2, Q9P2F8
T5 sequence (Q9P2F8 945-1036, limits assumed, looked up): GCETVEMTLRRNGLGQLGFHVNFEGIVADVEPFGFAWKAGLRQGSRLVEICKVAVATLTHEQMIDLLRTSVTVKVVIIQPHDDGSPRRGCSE

T6: RHPN1, Q8TCX5
T6 sequence (Q8TCX5 508-602, limits assumed, looked up): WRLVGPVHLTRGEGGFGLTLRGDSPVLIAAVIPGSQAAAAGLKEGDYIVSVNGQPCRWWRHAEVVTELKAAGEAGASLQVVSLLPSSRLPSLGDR

T7: PARD3B_1, Q8TEW8
T7 sequence (Q8TEW8 196-299, limits assumed, looked up): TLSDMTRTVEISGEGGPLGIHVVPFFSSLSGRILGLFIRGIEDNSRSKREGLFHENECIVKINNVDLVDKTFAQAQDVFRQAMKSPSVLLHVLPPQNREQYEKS

T8: MPDZ_12, O75970
T8 sequence (O75970 1857-1958, limits assumed, looked up): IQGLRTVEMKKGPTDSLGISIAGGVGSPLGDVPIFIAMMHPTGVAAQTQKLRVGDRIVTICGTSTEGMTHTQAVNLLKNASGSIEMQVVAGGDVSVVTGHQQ

B1: GRID2, O43424 (peptide)
chain: GNDPDRGTSI

Target: MAGI2_6, Q86UL8
Assay: holdup assay
Set-up: key: below the threshold = too weak to quantify, mostly under pKd 3.1 to 4
Details: plain residues with an end cap or a label only (N-terminal biotin on a linker: ado-ado)

Chain of MAGI2_6, Q86UL8 (Q86UL8 1141-1229): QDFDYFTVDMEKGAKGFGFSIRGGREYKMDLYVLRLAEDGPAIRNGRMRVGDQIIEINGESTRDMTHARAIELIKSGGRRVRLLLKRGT

Row | pKd | Binder
1 | 3.58 | B1

Target: LNX1_3, Q8TBB1
Assay: holdup assay
Set-up: key: below the threshold = too weak to quantify, mostly under pKd 3.1 to 4
Details: plain residues with an end cap or a label only (N-terminal biotin on a linker: ado-ado)

Chain of LNX1_3, Q8TBB1 (Q8TBB1 500-596): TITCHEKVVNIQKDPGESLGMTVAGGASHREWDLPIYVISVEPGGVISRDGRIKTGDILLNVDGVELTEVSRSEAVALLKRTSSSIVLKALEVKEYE

Row | pKd | Binder
2 | below the threshold | B1

Target: NHERF2_2, Q15599
Assay: holdup assay
Set-up: key: below the threshold = too weak to quantify, mostly under pKd 3.1 to 4
Details: plain residues with an end cap or a label only (N-terminal biotin on a linker: ado-ado)

Chain of NHERF2_2, Q15599 (Q15599 142-238): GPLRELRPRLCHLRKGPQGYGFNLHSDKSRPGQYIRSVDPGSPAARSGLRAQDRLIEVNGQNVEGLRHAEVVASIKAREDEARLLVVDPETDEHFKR

Row | pKd | Binder
3 | 3.66 | B1

Target: DLG1_3, Q12959
Assay: holdup assay
Set-up: key: below the threshold = too weak to quantify, mostly under pKd 3.1 to 4
Details: plain residues with an end cap or a label only (N-terminal biotin on a linker: ado-ado)

Chain of DLG1_3, Q12959 (Q12959 457-571): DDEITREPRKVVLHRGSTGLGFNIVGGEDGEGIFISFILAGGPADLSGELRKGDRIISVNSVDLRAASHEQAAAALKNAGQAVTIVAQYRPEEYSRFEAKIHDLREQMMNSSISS

Row | pKd | Binder
4 | below the threshold | B1

Target: PTPN3, P26045
Assay: holdup assay
Set-up: key: below the threshold = too weak to quantify, mostly under pKd 3.1 to 4
Details: plain residues with an end cap or a label only (N-terminal biotin on a linker: ado-ado)

Chain of PTPN3, P26045 (P26045 505-587): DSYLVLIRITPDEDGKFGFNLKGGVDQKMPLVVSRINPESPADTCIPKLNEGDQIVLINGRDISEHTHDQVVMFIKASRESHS

Row | pKd | Binder
5 | 4.52 | B1

Target: Inadl_6, Q8NI35
Assay: holdup assay
Set-up: key: below the threshold = too weak to quantify, mostly under pKd 3.1 to 4
Details: plain residues with an end cap or a label only (N-terminal biotin on a linker: ado-ado)

Chain of Inadl_6, Q8NI35 (Q8NI35 1058-1167): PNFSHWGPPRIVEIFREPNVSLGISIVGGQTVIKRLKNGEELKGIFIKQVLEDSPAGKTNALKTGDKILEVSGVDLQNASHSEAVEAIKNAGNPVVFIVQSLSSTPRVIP

Row | pKd | Binder
6 | below the threshold | B1

Target: T1, LIN7C, Q9NUP9
Assay: holdup assay
Set-up: key: below the threshold = too weak to quantify, mostly under pKd 3.1 to 4
Details: plain residues with an end cap or a label only (N-terminal biotin on a linker: ado-ado)

Row | pKd | Binder
7 | below the threshold | B1

Target: GRIP2_4, Q9C0E4
Assay: holdup assay
Set-up: key: below the threshold = too weak to quantify, mostly under pKd 3.1 to 4
Details: plain residues with an end cap or a label only (N-terminal biotin on a linker: ado-ado)

Chain of GRIP2_4, Q9C0E4 (Q9C0E4 446-548): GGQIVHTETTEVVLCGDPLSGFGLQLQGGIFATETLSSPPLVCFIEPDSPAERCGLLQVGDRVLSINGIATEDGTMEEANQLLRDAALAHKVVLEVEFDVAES

Row | pKd | Binder
8 | below the threshold | B1

Target: SNX27, Q96L92
Assay: holdup assay
Set-up: key: below the threshold = too weak to quantify, mostly under pKd 3.1 to 4
Details: plain residues with an end cap or a label only (N-terminal biotin on a linker: ado-ado)

Row | pKd | Binder
9 | below the threshold | B1

Target: NHERF4_1, Q86UT5-2
Assay: holdup assay
Set-up: key: below the threshold = too weak to quantify, mostly under pKd 3.1 to 4
Details: plain residues with an end cap or a label only (N-terminal biotin on a linker: ado-ado)

Chain of NHERF4_1, Q86UT5-2 (Q86UT5 other isoform, or with tags, fused parts or gaps): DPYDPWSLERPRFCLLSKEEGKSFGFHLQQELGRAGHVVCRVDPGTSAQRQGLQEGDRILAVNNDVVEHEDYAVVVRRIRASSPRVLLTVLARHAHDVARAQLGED

Row | pKd | Binder
10 | below the threshold | B1

Target: FRMPD4, Q14CM0
Assay: holdup assay
Set-up: key: below the threshold = too weak to quantify, mostly under pKd 3.1 to 4
Details: plain residues with an end cap or a label only (N-terminal biotin on a linker: ado-ado)

Chain of FRMPD4, Q14CM0 (Q14CM0 67-160): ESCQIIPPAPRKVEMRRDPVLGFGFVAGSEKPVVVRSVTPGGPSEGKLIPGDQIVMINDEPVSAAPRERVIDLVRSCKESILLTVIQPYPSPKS

Row | pKd | Binder
11 | below the threshold | B1

Target: T2, GRIP1_4, Q9Y3R0
Assay: holdup assay
Set-up: key: below the threshold = too weak to quantify, mostly under pKd 3.1 to 4
Details: plain residues with an end cap or a label only (N-terminal biotin on a linker: ado-ado)

Row | pKd | Binder
12 | below the threshold | B1

Target: SCRIB_3, Q14160
Assay: holdup assay
Set-up: key: below the threshold = too weak to quantify, mostly under pKd 3.1 to 4
Details: plain residues with an end cap or a label only (N-terminal biotin on a linker: ado-ado)

Chain of SCRIB_3, Q14160 (Q14160 999-1103): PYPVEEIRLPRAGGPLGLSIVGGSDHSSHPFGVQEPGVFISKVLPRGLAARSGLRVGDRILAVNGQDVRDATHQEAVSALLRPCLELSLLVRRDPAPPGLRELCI

Row | pKd | Binder
13 | 4.29 | B1

Target: FRMPD2_2, Q68DX3
Assay: holdup assay
Set-up: key: below the threshold = too weak to quantify, mostly under pKd 3.1 to 4
Details: plain residues with an end cap or a label only (N-terminal biotin on a linker: ado-ado)

Chain of FRMPD2_2, Q68DX3 (Q68DX3 944-1038): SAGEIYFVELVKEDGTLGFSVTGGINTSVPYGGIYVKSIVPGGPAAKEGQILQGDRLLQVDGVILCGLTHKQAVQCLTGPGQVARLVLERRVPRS

Row | pKd | Binder
14 | below the threshold | B1

Target: T3, CARD11, Q9BXL7
Assay: holdup assay
Set-up: key: below the threshold = too weak to quantify, mostly under pKd 3.1 to 4
Details: plain residues with an end cap or a label only (N-terminal biotin on a linker: ado-ado)

Row | pKd | Binder
15 | below the threshold | B1

Target: Inadl_1, Q8NI35
Assay: holdup assay
Set-up: key: below the threshold = too weak to quantify, mostly under pKd 3.1 to 4
Details: plain residues with an end cap or a label only (N-terminal biotin on a linker: ado-ado)

Chain of Inadl_1, Q8NI35 (Q8NI35 113-229): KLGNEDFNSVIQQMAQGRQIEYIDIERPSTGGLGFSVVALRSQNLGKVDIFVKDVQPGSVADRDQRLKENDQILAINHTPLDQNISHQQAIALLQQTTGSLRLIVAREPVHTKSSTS

Row | pKd | Binder
16 | below the threshold | B1

Target: HTRA2, O43464
Assay: holdup assay
Set-up: key: below the threshold = too weak to quantify, mostly under pKd 3.1 to 4
Details: plain residues with an end cap or a label only (N-terminal biotin on a linker: ado-ado)

Chain of HTRA2, O43464 (O43464 355-458): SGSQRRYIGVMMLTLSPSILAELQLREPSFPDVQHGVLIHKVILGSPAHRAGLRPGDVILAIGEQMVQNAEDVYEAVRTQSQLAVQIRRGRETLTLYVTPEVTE

Row | pKd | Binder
17 | below the threshold | B1

Target: T4, SHANK1, Q9Y566
Assay: holdup assay
Set-up: key: below the threshold = too weak to quantify, mostly under pKd 3.1 to 4
Details: plain residues with an end cap or a label only (N-terminal biotin on a linker: ado-ado)

Row | pKd | Binder
18 | 3.54 | B1

Target: GORASP1, Q9BQQ3
Assay: holdup assay
Set-up: key: below the threshold = too weak to quantify, mostly under pKd 3.1 to 4
Details: plain residues with an end cap or a label only (N-terminal biotin on a linker: ado-ado)

Chain of GORASP1, Q9BQQ3 (Q9BQQ3 1-208): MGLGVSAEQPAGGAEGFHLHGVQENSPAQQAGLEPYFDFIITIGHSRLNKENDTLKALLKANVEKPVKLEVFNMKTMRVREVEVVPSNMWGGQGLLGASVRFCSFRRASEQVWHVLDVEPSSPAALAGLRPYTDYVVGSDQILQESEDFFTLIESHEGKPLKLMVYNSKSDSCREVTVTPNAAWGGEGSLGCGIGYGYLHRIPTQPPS

Row | pKd | Binder
19 | below the threshold | B1

Target: T5, SIPA1L2, Q9P2F8
Assay: holdup assay
Set-up: key: below the threshold = too weak to quantify, mostly under pKd 3.1 to 4
Details: plain residues with an end cap or a label only (N-terminal biotin on a linker: ado-ado)

Row | pKd | Binder
20 | below the threshold | B1

Target: T6, RHPN1, Q8TCX5
Assay: holdup assay
Set-up: key: below the threshold = too weak to quantify, mostly under pKd 3.1 to 4
Details: plain residues with an end cap or a label only (N-terminal biotin on a linker: ado-ado)

Row | pKd | Binder
21 | below the threshold | B1

Target: T7, PARD3B_1, Q8TEW8
Assay: holdup assay
Set-up: key: below the threshold = too weak to quantify, mostly under pKd 3.1 to 4
Details: plain residues with an end cap or a label only (N-terminal biotin on a linker: ado-ado)

Row | pKd | Binder
22 | below the threshold | B1

Target: GRID2IP_2, A4D2P6
Assay: holdup assay
Set-up: key: below the threshold = too weak to quantify, mostly under pKd 3.1 to 4
Details: plain residues with an end cap or a label only (N-terminal biotin on a linker: ado-ado)

Chain of GRID2IP_2, A4D2P6 (A4D2P6 272-370): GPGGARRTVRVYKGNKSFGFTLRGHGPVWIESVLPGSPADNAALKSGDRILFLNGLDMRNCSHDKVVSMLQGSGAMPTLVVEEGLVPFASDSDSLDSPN

Row | pKd | Binder
23 | 4.16 | B1

Target: NHERF4_4, Q86UT5
Assay: holdup assay
Set-up: key: below the threshold = too weak to quantify, mostly under pKd 3.1 to 4
Details: plain residues with an end cap or a label only (N-terminal biotin on a linker: ado-ado)

Chain of NHERF4_4, Q86UT5 (Q86UT5 464-550): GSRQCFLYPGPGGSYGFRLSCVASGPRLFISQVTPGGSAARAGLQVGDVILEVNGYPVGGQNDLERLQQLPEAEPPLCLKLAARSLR

Row | pKd | Binder
24 | below the threshold | B1

Target: Inadl_2, Q8NI35
Assay: holdup assay
Set-up: key: below the threshold = too weak to quantify, mostly under pKd 3.1 to 4
Details: plain residues with an end cap or a label only (N-terminal biotin on a linker: ado-ado)

Chain of Inadl_2, Q8NI35 (Q8NI35 238-335): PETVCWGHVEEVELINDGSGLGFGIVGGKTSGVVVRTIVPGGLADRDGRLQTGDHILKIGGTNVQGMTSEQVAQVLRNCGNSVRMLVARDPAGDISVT

Row | pKd | Binder
25 | below the threshold | B1

Target: T8, MPDZ_12, O75970
Assay: holdup assay
Set-up: key: below the threshold = too weak to quantify, mostly under pKd 3.1 to 4
Details: plain residues with an end cap or a label only (N-terminal biotin on a linker: ado-ado)

Row | pKd | Binder
26 | below the threshold | B1

Target: MAGI2_2, Q86UL8
Assay: holdup assay
Set-up: key: below the threshold = too weak to quantify, mostly under pKd 3.1 to 4
Details: plain residues with an end cap or a label only (N-terminal biotin on a linker: ado-ado)

Chain of MAGI2_2, Q86UL8 (Q86UL8 410-522): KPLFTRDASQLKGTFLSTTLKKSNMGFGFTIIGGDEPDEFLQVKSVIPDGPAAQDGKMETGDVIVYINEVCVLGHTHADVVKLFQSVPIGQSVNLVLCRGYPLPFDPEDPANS

Row | pKd | Binder
27 | below the threshold | B1

Target: LDB3, O75112
Assay: holdup assay
Set-up: key: below the threshold = too weak to quantify, mostly under pKd 3.1 to 4
Details: plain residues with an end cap or a label only (N-terminal biotin on a linker: ado-ado)

Chain of LDB3, O75112 (O75112 1-94): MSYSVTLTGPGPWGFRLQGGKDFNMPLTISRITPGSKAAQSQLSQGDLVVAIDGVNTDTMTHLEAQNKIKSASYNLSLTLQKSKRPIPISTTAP

Row | pKd | Binder
28 | below the threshold | B1

Target: DLG4_1, P78352
Assay: holdup assay
Set-up: key: below the threshold = too weak to quantify, mostly under pKd 3.1 to 4
Details: plain residues with an end cap or a label only (N-terminal biotin on a linker: ado-ado)

Chain of DLG4_1, P78352 (P78352 62-152): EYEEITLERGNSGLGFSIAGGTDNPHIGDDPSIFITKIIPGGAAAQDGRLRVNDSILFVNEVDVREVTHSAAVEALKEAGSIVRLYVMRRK

Row | pKd | Binder
29 | below the threshold | B1
